Experiment [1] has as its target T1, human CEACAM4 (human, UniProt O75871 36-244).
T1 construct: whole, on cells
T1 sequence (looked up): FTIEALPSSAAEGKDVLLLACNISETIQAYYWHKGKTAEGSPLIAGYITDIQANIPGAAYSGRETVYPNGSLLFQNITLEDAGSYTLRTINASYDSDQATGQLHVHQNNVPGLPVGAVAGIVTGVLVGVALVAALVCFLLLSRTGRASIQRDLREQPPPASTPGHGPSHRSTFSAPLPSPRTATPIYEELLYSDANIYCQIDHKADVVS
Description: flow cytometry, transfected PEAK cells. The text has this:
(§1) Vectors encoding the full-length version of human CEACAM 1, 3, 4, 5, 6, 7, 8, 18, 19, 20 and […] are used to express these proteins at the surface of PEAK and/or CHO cells as described in Example 1. Similarly, vectors encoding the full-length version of cyno CEACAM 5 and 6 are also used to express these proteins at the surface of PEAK and/or CHO cells. Non-transfected PEAK and/or CHO cells are used as negative control. Cells are harvested, counted, checked for viability and resuspended at 3×10⁶ cells/ml in FACS buffer (PBS 2% BSA, 0.1% NaN₃). 100 μl of the cell suspension are distributed in V-bottom 96-well plates (3×10⁵ cells/well). The supernatant is removed by centrifugation 3 minutes at 4° C., 1300 rpm and the cells incubated for 15 minutes at 4° C. with increasing concentrations of the antibody according to the invention. The antibodies carrying the anti-CEACAM5 arms to test are diluted in FACS buffer and the concentration range is 30 pM-500 nM. Cells are washed twice with cold FACS buffer and re-incubated for further 15 minutes at 4° C. with a compatible anti-human IgG secondary antibody. Cells are washed twice with cold FACS buffer and resuspended in 300 μl FACS buffer with 1:1500-diluted TOPRO-3 (Invitrogen). Fluorescence is measured using a FACSCalibur™ (BD Biosciences) or a Cytoflex Platform (Beckman Coulter). Dose-response binding curves are fitted using GraphPad Prism8 software. In the same manner, CEACAM1, CEACAM6 and other CEACAMs can be characterized.
(§2) For the bispecific antibodies AB17L3-1/N, AB71L3-1/N, AB72L3-1/N, AB73L3-1/N the MFI measured for binding to CEACAM5 transfected cells was found between 29000 and 41000 (Table 2). In contrast MFI found by using PEAK cells transfected with CEACAM 1,3,4,6,8 were found below 1000 with the only exception of a strong signal for AB72L3-1/N on CEACAM8 transfected cells. When MFI values obtained on transfected cells expressing any given CEACAM are divided by the values obtained on WT PEAK cells, “factors to PEAK WT” can be calculated (Table 3).
(In flow cytometry, cells or beads pass a laser one at a time.)

Experiment [2] addresses T2, human CEACAM6 (human, UniProt P40199 35-320).
T2 construct: whole, on cells; also called CD66c
T2 sequence (looked up): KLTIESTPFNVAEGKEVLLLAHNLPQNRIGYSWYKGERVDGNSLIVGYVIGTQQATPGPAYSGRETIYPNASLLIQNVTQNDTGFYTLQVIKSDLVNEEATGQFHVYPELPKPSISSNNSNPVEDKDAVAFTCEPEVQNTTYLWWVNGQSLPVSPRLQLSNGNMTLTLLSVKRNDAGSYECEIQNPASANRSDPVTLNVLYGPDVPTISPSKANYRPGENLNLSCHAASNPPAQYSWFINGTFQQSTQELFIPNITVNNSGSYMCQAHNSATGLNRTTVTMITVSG
Description: flow cytometry, transfected PEAK cells.
Text: as §1, §2

Experiment [3] addresses T3, human CEACAM3 (human, UniProt P40198 35-252).
T3 construct: whole, on cells
T3 sequence (looked up): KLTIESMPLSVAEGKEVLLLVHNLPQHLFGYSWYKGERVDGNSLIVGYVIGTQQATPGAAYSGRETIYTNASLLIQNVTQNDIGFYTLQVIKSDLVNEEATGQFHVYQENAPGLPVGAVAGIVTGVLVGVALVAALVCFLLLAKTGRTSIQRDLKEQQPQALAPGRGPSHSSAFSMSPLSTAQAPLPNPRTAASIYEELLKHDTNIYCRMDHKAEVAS
As to the kind of experiment: flow cytometry, transfected PEAK cells.
Text: as §1, §2

Experiment [4] deals with T4, human CEACAM1 (human, UniProt P13688 35-526).
T4 construct: whole, on cells
T4 sequence (looked up): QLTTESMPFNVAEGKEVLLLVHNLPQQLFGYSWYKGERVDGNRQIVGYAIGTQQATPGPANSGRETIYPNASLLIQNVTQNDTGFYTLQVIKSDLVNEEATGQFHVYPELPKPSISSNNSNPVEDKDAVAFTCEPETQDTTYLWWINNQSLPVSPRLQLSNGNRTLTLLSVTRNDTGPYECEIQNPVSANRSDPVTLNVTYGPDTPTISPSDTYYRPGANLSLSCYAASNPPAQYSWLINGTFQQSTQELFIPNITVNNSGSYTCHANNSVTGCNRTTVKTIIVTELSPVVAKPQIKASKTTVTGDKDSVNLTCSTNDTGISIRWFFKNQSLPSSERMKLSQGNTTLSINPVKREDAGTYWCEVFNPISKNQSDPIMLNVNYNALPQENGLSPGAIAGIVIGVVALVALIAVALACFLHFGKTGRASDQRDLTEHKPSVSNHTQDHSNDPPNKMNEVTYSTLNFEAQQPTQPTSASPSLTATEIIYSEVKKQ
Description: flow cytometry, transfected PEAK cells.
Text: as §1, §2

The target of experiment [5] is T2, human CEACAM6. As to the kind of experiment: flow cytometry, transfected PEAK cells, 10 mcg/ml.
Text: as §1, §2

Changes are numbered by the printed parent chain. Numbers in names are those of the source.

B1: AB17L3-1/N (bispecific antibody, human IgG1, kappa, lambda, L234A L235A)
heavy: EVQLVESGGGLVQPGGSLKLSCAASGFTFNTYAMNWVRQAPGKGLEWVGRIRSKYNNYATYYADSVKDRFTISRDDSKNTAYLQMNSLKTEDTAVYYCVRHGNFGNSYVSWFAYWGQGTLVTVSSASTKGPSVFPLAPSSKSTSGGTAALGCLVKDYFPEPVTVSWNSGALTSGVHTFPAVLQSSGLYSLSSVVTVPSSSLGTQTYICNVNHKPSNTKVDKRVEPKSCDKTHTCPPCPAPEAAGGPSVFLFPPKPKDTLMISRTPEVTCVVVDVSHEDPEVKFNWYVDGVEVHNAKTKPREEQYNSTYRVVSVLTVLHQDWLNGKEYKCKVSNKALAAPIEKTISKAKGQPREPQVYTLPPSREEMTKNQVSLTCLVKGFYPSDIAVEWESNGQPENNYKTTPPVLDSDGSFFLYSKLTVDKSRWQQGNVFSCSVMHEALHNHYTQKSLSLSPG
light 1: EIVLTQSPATLSLSPGERATLSCRASQSVNSNLNWYQQKPGQAPRLLIYHGSNRATGIPARFSGSGSGTDFTLTISSLEPEDFAVYYCQQFDYFKEHNTFGQGTKVEIKRTVAAPSVFIFPPSDEQLKSGTASVVCLLNNFYPREAKVQWKVDNALQSGNSQESVTEQDSKDSTYSLSSTLTLSKADYEKHKVYACEVTHQGLSSPVTKSFNRGEC
light 2: QTVVTQEPSLTVSPGGTVTLTCRSSTGAVTTSNYANWFQQKPGQAPRGLIGGTNKRAPGTPARFSGSLLGGKAALTLSGAQPEDEAEYYCALWYKQRWVFGGGTKLTVLGQPKAAPSVTLFPPSSEELQANKATLVCLISDFYPGAVTVAWKADSSPVKAGVETTTPSKQSNNKYAASSYLSLTPEQWKSHRSYSCQVTHEGSTVEKTVAPTECS
notes: Kappa-lambda body, lead optimization wave 1
Turning to B1, the binding result in experiment [1], in experiment [2], in experiment [3] and in experiment [4] was “no binding (tested: 10 mcg/ml)” in each case. In experiment [5], the MFI is 541 MFI.

B2: AB1L3-1/N (bispecific antibody, human IgG1, kappa, lambda, L234A L235A)
heavy: B1 heavy
light 1: B1 light 1 with Y93L, F94R, K95H
light 2: B1 light 2
notes: Kappa-lambda body: common heavy chain (hIgG1 L234A+L235A+P329A), kappa CEA light chain AB1, lambda CD3 light chain L3-1 (1A4); also called parental KL bispecific antibody
As to B2, the binding result in experiment [1], in experiment [2], in experiment [3] and in experiment [4] was “no binding (tested: 10 mcg/ml)” throughout. The MFI in experiment [5] was determined as 373 MFI.

B3: AB72L3-1/N (bispecific antibody, human IgG1, kappa, lambda, L234A L235A)
heavy: B1 heavy
light 1: B1 light 1 with G51S, S52T, A55P, T56R, H97Y
light 2: B1 light 2
notes: Kappa-lambda body, lead optimization wave 2
Take B3: the binding result in experiment [1], in experiment [2], in experiment [3] and in experiment [4] was “no binding (tested: 10 mcg/ml)” each time. In experiment [5], this molecule came in with an MFI of 562 MFI.

B4: AB73L3-1/N (bispecific antibody, human IgG1, kappa, lambda, L234A L235A)
heavy: B1 heavy
light 1: B1 light 1 with G51S, S52N, A55P, T56H, K95R, H97Y
light 2: B1 light 2
notes: as for B3
Molecule B4 showed an MFI in experiment [5] of 490 MFI.

B5: AB71L3-1/N (bispecific antibody, human IgG1, kappa, lambda, L234A L235A)
heavy: B1 heavy
light 1: B1 light 1 with G51S, A55P, T56H
light 2: B1 light 2
notes: as for B3
The molecule B5 gave an MFI in experiment [5] of 420 MFI.

These data come from patent US20230136228A1 (LAMKAP BIO ALPHA, published 2023).
